Experimental data taken from the Human Domainome abundance scans (Beltran et al. 2025).
± gives the uncertainty stated by the source.

B1: 1-phosphatidylinositol 4,5-bisphosphate phosphodiesterase gamma-2, residues 772 to 827; numbered along this chain, P16885 (parent)
chain: RTVKALYDYKAKRSDELSFCRGALIHNVSKEPGGWWKGDYGTRIQQYFPSNYVEDI

Variants of: B1
Assay: abundance fitness (aPCA) (normalised: wild type 0, dead -1); higher = more abundant; growth selection in yeast, the domain comes from the species named
Conditions: Homo sapiens

Abundance fitness, by site and new letter:
A11: T -0.461 ± 0.092; C -0.819 ± 0.11; Q -0.176 ± 0.19; L -1.05 ± 0.14; E -0.775 ± 0.25; V -0.972 ± 0.065; S -0.39 ± 0.11; R -0.683 ± 0.083; N -0.378 ± 0.17; P -0.446 ± 0.27; W -0.989 ± 0.21
Y9: V -1.07 ± 0.33; L -0.923 ± 0.19; S -0.939 ± 0.27; P -0.734 ± 0.3; H -0.164 ± 0.26; C 0.089 ± 0.17; E -0.868 ± 0.31; R -0.685 ± 0.098; G -0.949 ± 0.11; W -0.223 ± 0.098; K -0.816 ± 0.25; T -0.931 ± 0.24
Y7: D -0.282 ± 0.31; K 0.158 ± 0.078; Q 0.2 ± 0.093; F 0.126 ± 0.1; L -0.077 ± 0.074; T -0.267 ± 0.1; E -0.117 ± 0.093; N -0.375 ± 0.29; C -0.118 ± 0.14; V -0.2 ± 0.065; A 0.01 ± 0.066; M -0.059 ± 0.079; I -0.165 ± 0.41; S -0.109 ± 0.078; G -0.35 ± 0.051; R 0.169 ± 0.073; H -0.015 ± 0.45
K10: G -0.373 ± 0.054; C -0.034 ± 0.055; D 0.052 ± 0.1; W -0.319 ± 0.054; I -0.336 ± 0.32; E -0.104 ± 0.11; Y -0.106 ± 0.27; M -0.356 ± 0.12; R -0.033 ± 0.079; F -0.333 ± 0.25; S -0.008 ± 0.084; Q -0.002 ± 0.096; A -0.319 ± 0.12; L -0.399 ± 0.062; V 0.103 ± 0.082; T -0.025 ± 0.097; N -0.042 ± 0.33; P -0.502 ± 0.12
A5: M -0.942 ± 0.082; P -0.95 ± 0.07; S -0.503 ± 0.042; W -0.955 ± 0.19; L -0.999 ± 0.066; R -0.896 ± 0.089; V -0.965 ± 0.12; Q -0.865 ± 0.15; K -0.998 ± 0.13; N -0.964 ± 0.099
D15: I -0.027 ± 0.19; E 0.018 ± 0.067; K -0.503 ± 0.14; R -0.427 ± 0.1; C -0.165 ± 0.16; M 0.185 ± 0.11; G -0.047 ± 0.078; N -0.048 ± 0.087; S 0.006 ± 0.058; F -0.124 ± 0.14; V -0.041 ± 0.042; Q -0.214 ± 0.18; H -0.362 ± 0.33; A -0.182 ± 0.076; L -0.37 ± 0.069; T 0.178 ± 0.1; P -0.879 ± 0.15
K12: H 0.113 ± 0.13; A -0.16 ± 0.078; Y -0.48 ± 0.12; V -0.217 ± 0.086; F -0.63 ± 0.15; N -0.181 ± 0.1; S -0.263 ± 0.068; W -0.369 ± 0.24; G -0.182 ± 0.063; I -0.405 ± 0.13; Q -0.077 ± 0.052; R -0.092 ± 0.068; L -0.177 ± 0.067; T -0.097 ± 0.052; E -0.206 ± 0.18; D -0.239 ± 0.1; M -0.004 ± 0.068; P -0.93 ± 0.18; C -0.705 ± 0.15
D8: Y -0.576 ± 0.1; V -0.982 ± 0.2; F -0.382 ± 0.24; R -0.452 ± 0.059; M -0.579 ± 0.13; N -0.059 ± 0.054; S -0.059 ± 0.076; W -0.634 ± 0.18; C -0.105 ± 0.074; A 0.068 ± 0.09; T 0.078 ± 0.095; E -0.17 ± 0.09; G -0.083 ± 0.072
L6: W -0.935 ± 0.47; K 0.01 ± 0.1; F -0.456 ± 0.35; P -0.691 ± 0.18; D -0.577 ± 0.22; R -0.177 ± 0.074; N -0.257 ± 0.088; A -0.195 ± 0.055; G -0.721 ± 0.078; E -0.631 ± 0.12; I 0.09 ± 0.16; C -0.406 ± 0.16; T -0.161 ± 0.14; H -0.834 ± 0.16; Q -0.485 ± 0.087; V -0.356 ± 0.075
S14: A 0.038 ± 0.078; W -0.334 ± 0.09; L -0.167 ± 0.072; F 0.024 ± 0.16; G -0.007 ± 0.068; N -0.316 ± 0.21; M 0.024 ± 0.06; I 0.031 ± 0.14; Y -0.304 ± 0.19; D -0.053 ± 0.11; V -0.16 ± 0.064; H -0.107 ± 0.18; K -0.172 ± 0.17; C -0.124 ± 0.14; T -0.291 ± 0.13; E -0.206 ± 0.095; P -0.439 ± 0.21; R 0.026 ± 0.056; Q 0.037 ± 0.075
R13: E -0.306 ± 0.23; H -0.26 ± 0.16; F -0.007 ± 0.12; D -0.281 ± 0.14; S -0.056 ± 0.057; M -0.021 ± 0.081; Y -0.1 ± 0.11; G -0.316 ± 0.083; V -0.47 ± 0.13; K -0.267 ± 0.21; T -0.368 ± 0.27; Q -0.301 ± 0.18; C -0.212 ± 0.13; W -0.846 ± 0.36; L -0.645 ± 0.12
